From US20240124857A1, “COMPOSITION FOR GUT HEALTH” (DUPONT NUTRITION BIOSCIENCES APS, priority 2021, published 2024)

How the values were obtained:
[1] = system: Acute DSS colitis in C57BL/6 mice; assay: Chemically-induced DSS colitis mouse model, disease activity index (DAI); format: in vivo
From the text: Acute DSS colitis was induced in C57BL/6 mice according to the previously published method with minor modification (Sann et al., 2013, Life Sci. April 9; 92(12):708-18). The mice were fed 3% (w/v) DSS dissolved in the drinking water on day one to day five. Fresh DSS solution was provided every other day. Control mice (Group 1) drank only distilled water. Groups 4 to 8 received candidate acid phosphatase enzymes by oral gavage and groups 9 to 12 received enzymes via catheter (Table 2). DAI was calculated as described earlier (Cooper et al., 1993, Laboratory investigation; a journal of technical methods and pathology. 69(2):238-49).

[2] = Enzyme activity towards ATP at pH 3 to 9 (malachite green phosphate detection); format: biochemical; conditions: FIG. 1; 250 μM ATP, 5 mM CaCl2, pH 3 to 9
Method: (§1) Enzyme activity towards ATP or ADP at pH 3 to 9: The ability of candidate enzymes to degrade ATP or ADP to AMP and free phosphate (Pi) was measured using a standard malachite green phosphate detection kit (Sigma Aldrich cat no. MAK307). The enzyme reactions were carried out in 96-well plates with a total volume of 150 μL and contained 250 μM of a substrate, 50 mM of a buffer, 5 mM CaCl2, and a variable concentration of enzyme. The substrate was ATP or ADP. The buffer was glycine (pH 3), acetate (pH 4, 4.5, 5), bis-Tris (pH 5.5, 6, 6.5), or Tris (pH 7, 8, 9). The concentration of enzyme varied from about 1 μg/mL to 1 ng/mL and was adjusted based on the activity of the enzyme so that the amount of phosphate released during the assay was with the dynamic range of the assay (5-100 μM phosphate). The enzyme concentration was determined by the absorbance at 280 nm and using the predicted molecular weight and molar extinction coefficient to calculate the concentration. […] The malachite green reaction mixture was allowed to rest at room temperature for 45-60 min and the absorbance at 620 nm was measured. Lastly, the absorbance of the phosphate standards were used to convert the absorbance readings of each sample into phosphate concentrations and the negative control was subtracted from each reaction.

Apc/minJ mice = assay: Antibiotic-induced gut inflammation in Apc/minJ mice: DAI, colon length, histopathology; format: in vivo; conditions: antibiotics cocktail, 10 μg/dose oral gavage
Method: (§2) Apc/minJ mice have a mutated adenomatous polyposis coli gene and are more prone to develop colitis and tumors. In this Example, and using this model, 6-7 weeks old mice were subjected to an antibiotics cocktail of vancomycin, ampicillin, and neomycin (1 mg/mL) for 7 days in drinking water in order to induce a gut inflammatory response. Control mice (Groups 1 and 2) drank only distilled water. Groups 4 and 6 received CRC22110 ay 10 μg/dose enzyme by oral gavage and groups 5 and 6 received human microbiota transplant (HMT) by gavage. HMT was prepared by inoculating fecal sample from a healthy human donor in 20 ml of YCFAC media. Culture was grown anaerobically for 16 hrs at 37° C. Cells were collected by centrifugation and washed with PBS. Cells were resuspended in 10% glycerol and cell numbers were estimated by plating on YCFAC agar plates.
Disease Severity: Disease severity was scored using a clinical disease activity index (DAI), calculated as previously described using the following parameters: stool consistency, presence or absence of fecal blood and weight loss (Cooper et al., 1993, Laboratory investigation; a journal of technical methods and pathology. 69(2):238-49). The mice were killed on days 12 and 16, colons were measured, and the tissue was prepared for histopathological studies. The colon was fixed in 10% formaldehyde-saline. Hematoxylin and eosin stain (HE)-stained sections are graded based on a scoring system adapted from Burich et al., 2001, Am. J. Physiol. Gastrointest. Liver Physiol. 281:G764-G778 and Hausmann et al., 2007, Clin Exp Immunol. 2007 May; 148(2):373-81. Histology scoring is performed, and a combined score of inflammatory cell infiltration and tissue damage is determined for all the groups.

[3] = Enzyme activity towards ADP at pH 3 to 9 (malachite green phosphate detection); format: biochemical; conditions: FIG. 2; 250 μM ADP, 5 mM CaCl2, pH 3 to 9
Method: as §1

[4] = Enzyme acid resistance: residual activity on ATP after incubation at pH 2; format: physicochemical; conditions: 60 min in acid buffer, 50 mM glycine, 5 mM CaCl2; FIG. 4
Method: Enzyme acid resistance: Candidate enzymes were tested for their ability to resist inactivation at low pH by incubating the enzymes in an “acid buffer” of 50 mM glycine and 5 mM CaCl2 at pH 2 for 15 or 60 minutes and comparing their activity to enzymes in a “control buffer” at their optimum pH. The optimum buffer for CRC21323 and CRC21322 was 50 mM acetate pH 4.5 with 5 mM CaCl2. The optimum buffer for all other enzymes was 50 mM bis-Tris pH 6.5 with 5 mM CaCl2. After incubating in the acidic glycine buffer, the enzyme mixtures were neutralized by mixing with an equal volume of neutralization buffer. The neutralization buffer for CRC21323 and CRC21322 was 100 mM acetate and 10 mM CaCl2 at pH 4.5. The neutralization buffer for the other enzymes was 100 mM bis-Tris and 10 mM CaCl2 at pH 6.5. Next, the acid-stressed and control enzyme were tested for their ability to release phosphate from ATP using the reaction conditions and malachite green assay as described in with the following changes. The only substrate tested was ATP. CRC21323 and CRC21322 were tested with a buffer of acetate pH 4.5, but all other enzymes were tested in a buffer of bis-Tris pH 6.5. After determining the concentration of phosphate in each reaction, the residual activity of each enzyme after 15 or 60 min incubation in the “acid buffer” was calculated by dividing the acid-stressed by the control enzyme phosphate concentrations for each enzyme.

[5] = ATPase activity at 0.05 ppm enzyme on 0.1 mM ATP (absorbance 620 nm); format: biochemical
How it was run: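 Enzyme at 0.05 ppm with 0.1 mM ATP in 50 mM MES buffer, pH 6 and pH 5, with 5 mM CaCl2; reaction stopped after 5 min. Released phosphate detected by malachite green at 620 nm, water blank subtracted.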

[6] = Relative activity on ATP of CRC22110 single-site variants; format: biochemical; conditions: in comparison to CRC22110 wild type
[7] = system: commensals from HMT in Apc/minJ mice; assay: Engraftment of human microbiota transplant (HMT) commensals, 16S sequencing of day 13 fecal samples; format: in vivo; conditions: group 6 (Ab + HMT + Enz) compared with group 5 (Ab + HMT); FIG. 11
Method: as §2, with “plates. Promotion of Engraftment: Fecal samples were collected from each mouse per day. Day 13 fecal samples were processed and 16S sequencing was done to evaluate the structure of microbiome. Group 5 was compared with group 6 and engraftment of HMT was evaluated.[…]” for “plates.”

B1: CRC22110: GDA1/CD39 family enzyme, accession EKE69473.1, SEQ ID NO:9 (predicted mature), SEQ ID NO:1 (protein, listed as Gallaecimonas xiamenensis)
chain: ADKPACRAVFDAGSSGTRLFLYVQQEGGWQPWPGAKLGALADPVRQHQGPKAMAALAADLANSLEALRQDGPTNSEGQPRWQGFDWQQACRLQSVSVLATAGMRLAEQQDPVASVALWQEVQQALAGLLGPAVAIDARTLTGFEEGFYAWLAARARLGRSDMGIVEMGGASSQVAFPCPACDRADDAVQQVRLEGQTLDFYSYSFLGLGQDEAPKVLGVPHACRYGAGVKDPNWQLGQCQAQLPLTLGRALKDPYNFQGQGQGGYRQVPTEKAGVKDWLLTGAFQYNTPDQLDSCCLNQGQCYQPSTACFRVAYLPLYLDSLGVDPHSPDLDVSWTLGAVLCRNEQCLAPSKPPCRWRKAGCLAPSVGDGRPEGRPGQQPGGVQHRQH
reduction in DAI score compared to control ([1]; catheterized mice, test items via cecum BID, FIG. 6A, 6B): 47% | DAI score compared to CRCO2733 ([1]; non-catheterized mice, oral gavage BID, FIG. 5A, 5B): significant reduction | specific activity on ATP over a range of pHs [2]: most active enzyme | improvement in DAI score compared to control (Apc/minJ mice; FIG. 8): 25% | colon length compared to control (Apc/minJ mice; FIG. 9): significant improvement | focal hyperplasia in the colon (histopathologic analysis) (Apc/minJ mice; FIG. 10): absent | specific activity on ADP over a range of pHs [3]: most active enzyme | residual activity after incubation at pH 2 [4]: greatest resistance | Activity on ATP (absorbance at 620 nm, blank subtracted), pH 5.0 ([5]; 50 mM IVIES buffer pH 5): 0.60 | Activity on ATP (absorbance at 620 nm, blank subtracted), pH 6.0 ([5]; 50 mM IVIES buffer pH 6): 0.37 | Relative activity (%) on ATP [6]: 100% | engraftment of commensals from HMT [7]: better engraftment of several commensals from HMT
